What was measured:
recombinant human TfR-1 = target: T1, recombinant human TfR-1 (human, UniProt P02786 89-760); assay: phage ELISA
T1 construct: Recombinant protein coated at 1 ug/ml in the phage ELISA; also called hTfR1; human transferrin receptor-1

recombinant mouse TfR-1 = target: T2, recombinant mouse TfR-1 (mouse, UniProt Q62351 89-763); assay: phage ELISA
T2 construct: Recombinant protein coated at 1 ug/ml in the phage ELISA; also called mTfR1; mouse transferrin receptor-1
T2 sequence (Q62351 89-763 limits assumed): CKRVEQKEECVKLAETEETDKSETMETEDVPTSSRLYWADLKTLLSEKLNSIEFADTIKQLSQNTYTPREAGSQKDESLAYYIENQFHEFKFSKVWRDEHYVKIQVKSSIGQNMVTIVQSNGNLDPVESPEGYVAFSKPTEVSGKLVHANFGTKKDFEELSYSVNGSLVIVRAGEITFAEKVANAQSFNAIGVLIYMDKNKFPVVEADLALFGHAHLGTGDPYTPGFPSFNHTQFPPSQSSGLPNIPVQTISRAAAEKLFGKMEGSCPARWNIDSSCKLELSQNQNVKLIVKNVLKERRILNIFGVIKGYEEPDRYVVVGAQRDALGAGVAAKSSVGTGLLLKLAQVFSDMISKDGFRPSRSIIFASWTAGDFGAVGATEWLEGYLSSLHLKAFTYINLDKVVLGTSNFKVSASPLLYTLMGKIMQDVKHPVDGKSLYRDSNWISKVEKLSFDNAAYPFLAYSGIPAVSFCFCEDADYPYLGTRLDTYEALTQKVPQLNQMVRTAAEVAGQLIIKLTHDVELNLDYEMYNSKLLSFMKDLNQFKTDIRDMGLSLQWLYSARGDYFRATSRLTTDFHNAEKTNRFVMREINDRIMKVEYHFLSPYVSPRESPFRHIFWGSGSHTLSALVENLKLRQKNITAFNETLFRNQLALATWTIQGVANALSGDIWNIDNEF

T1 sequence (P02786 89-760 limits assumed): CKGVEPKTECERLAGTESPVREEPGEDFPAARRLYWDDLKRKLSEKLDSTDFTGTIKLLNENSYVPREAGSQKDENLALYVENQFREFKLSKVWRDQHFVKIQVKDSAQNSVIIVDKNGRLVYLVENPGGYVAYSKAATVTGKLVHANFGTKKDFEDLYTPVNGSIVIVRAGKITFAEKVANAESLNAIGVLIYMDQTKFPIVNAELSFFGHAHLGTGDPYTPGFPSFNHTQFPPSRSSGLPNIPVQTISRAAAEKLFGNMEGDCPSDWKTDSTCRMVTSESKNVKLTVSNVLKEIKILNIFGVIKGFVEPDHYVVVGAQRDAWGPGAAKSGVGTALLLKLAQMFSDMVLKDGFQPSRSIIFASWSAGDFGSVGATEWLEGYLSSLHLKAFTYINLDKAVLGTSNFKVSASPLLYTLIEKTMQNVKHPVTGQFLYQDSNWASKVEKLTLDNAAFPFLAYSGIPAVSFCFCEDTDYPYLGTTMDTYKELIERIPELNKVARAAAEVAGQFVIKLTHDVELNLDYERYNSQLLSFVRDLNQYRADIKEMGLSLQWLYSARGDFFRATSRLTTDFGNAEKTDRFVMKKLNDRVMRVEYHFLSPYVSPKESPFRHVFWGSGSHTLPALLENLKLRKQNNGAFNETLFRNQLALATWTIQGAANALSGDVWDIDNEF

Row | Binder | A450 (recombinant human TfR-1) | A450 (recombinant mouse TfR-1)
1 | Clone 8.57 (VNAR, VNAR on phage; Clone 8 framework) VNAR: ARVDQTPQTITKETGESLTINCVLRDSNCALPSTYWYRKKSGSTNEESISKGGRYVETVNSGSKSFSLRINDLTVEDSGTYRCKVIAQLGNLLRGCNYRKHDVYGDGTAVTVNA | 0.083 A450 | 0.063 A450
2 | Clone 8.70 (VNAR, VNAR on phage; Clone 8 framework) VNAR: ARVDQTPQTITKETGESLTINCVLRDSNCALPSTYWYRKKSGSTNEESISKGGRYVETVNSGSKSFSLRINDLTVEDSGTYRCKVIAQLSSILRGCNYQTSDVYGDGTAVTVNA | 0.052 A450 | 0.061 A450
3 | Clone 8.63 (VNAR, VNAR on phage; Clone 8 framework) VNAR: ARVDQTPQTITKETGESLTINCVLRDSNCALPSTYWYRKKSGSTNEESISKGGRYVETVNSGSKSFSLRINDLTVEDSGTYRCKVYRYLSSILRGCNYRKHDVYGDGTAVTVNA | 0.071 A450 | 0.063 A450
4 | Clone 8.79 (VNAR, VNAR on phage; Clone 8 framework) VNAR: ARVDQTPQTITKETGESLTINCVLRDSNCALPSTYWYRKKSGSTNEESISKGGRYVETVNSGSKSFSLRINDLTVEDSGTYRCKVMNQLDHFLRGCNYRKHDVYGDGTAVTVNA | 0.061 A450 | 0.058 A450
5 | Clone 8.61 (VNAR, VNAR on phage; Clone 8 framework) VNAR: ARVDQTPQTITKETGESLTINCVLRDSNCALPSTYWYRKKSGSTNEESISKGGRYVETVNSGSKSFSLRINDLTVEDSGTYRCKVIAQLSSILQRCNYRKHDVYGDGTAVTVNA | 0.067 A450 | 0.063 A450
6 | Clone 8.80 (VNAR, VNAR on phage; Clone 8 framework) VNAR: ARVDQTPQTITKETGESLTINCVLRDSNCALPSTYWYRKKSGSTNEESISKGGRYVETVNSGSKSFSLRINDLTVEDSGTYRCKVIAQLPHDLRGCNYRKHDVYGDGTAVTVNA | 0.059 A450 | 0.057 A450
7 | Clone 8.60 (VNAR, VNAR on phage; Clone 8 framework) VNAR: ARVDQTPQTITKETGESLTINCVLRDSNCALPSTYWYRKKSGSTNEESISKGGRYVETVNSGSKSFSLRINDLTVEDSGTYRCKVIAQLSSILLTCLYRKHDVYGDGTAVTVNA | 0.073 A450 | 0.063 A450
8 | Clone 8.83 (VNAR, VNAR on phage; Clone 8 framework) VNAR: ARVDQTPQTITKETGESLTINCVLRDSNCALPSTYWYRKKSGSTNEESISKGGRYVETVNSGSKSFSLRINDLTVEDSGTYRCKVIAQLSSIRAGCNYRKHDVYGDGTAVTVNA | 0.046 A450 | 0.057 A450
9 | Clone 8.64 (VNAR, VNAR on phage; Clone 8 framework) VNAR: ARVDQTPQTITKETGESLTINCVLRDSNCALPSTYWYRKKSGSTNEESISKGGRYVETVNSGSKSFSLRINDLTVEDSGTYRCKVIAQLAFWLRGCNYRKHDVYGDGTAVTVNA | 0.083 A450 | 0.062 A450
10 | Clone 8.66 (VNAR, VNAR on phage; Clone 8 framework) VNAR: ARVDQTPQTITKETGESLTINCVLRDSNCALPSTYWYRKKSGSTNEESISKGGRYVETVNSGSKSFSLRINDLTVEDSGTYRCKVIAQLSSILRGCNYLAHDVYGDGTAVTVNA | 0.052 A450 | 0.062 A450
11 | Clone 8.81 (VNAR, VNAR on phage; Clone 8 framework) VNAR: ARVDQTPQTITKETGESLTINCVLRDSNCALPSTYWYRKKSGSTNEESISKGGRYVETVNSGSKSFSLRINDLTVEDSGTYRCKVIAQLSSAPDGCNYRKHDVYGDGTAVTVNA | 0.065 A450 | 0.057 A450
12 | Clone 8.85 (VNAR, VNAR on phage; Clone 8 framework) VNAR: ARVDQTPQTITKETGESLTINCVLRDSNCALPSTYWYRKKSGSTNEESISKGGRYVETVNSGSKSFSLRINDLTVEDSGTYRCKVIAQLRKKLRGCNYRKHDVYGDGTAVTVNA | 0.059 A450 | 0.056 A450
13 | Clone 8.62 (VNAR, VNAR on phage; Clone 8 framework) VNAR: ARVDQTPQTITKETGESLTINCVLRDSNCALPSTYWYRKKSGSTNEESISKGGRYVETVNSGSKSFSLRINDLTVEDSGTYRCKVIAQLSSILRGCNYAAGDVYGDGTAVTVNA | 0.056 A450 | 0.063 A450
14 | Clone 8.82 (VNAR, VNAR on phage; Clone 8 framework) VNAR: ARVDQTPQTITKETGESLTINCVLRDSNCALPSTYWYRKKSGSTNEESISKGGRYVETVNSGSKSFSLRINDLTVEDSGTYRCKVIAQLSSILRGCVYPKHDVYGDGTAVTVNA | 0.048 A450 | 0.057 A450
15 | Clone 8.87 (VNAR, VNAR on phage; Clone 8 framework) VNAR: ARVDQTPQTITKETGESLTINCVLRDSNCALPSTYWYRKKSGSTNEESISKGGRYVETVNSGSKSFSLRINDLTVEDSGTYRCKVIAQFSSILCSCRYRKHDVYGDGTAVTVNA | 0.07 A450 | 0.055 A450
16 | Clone 8.72 (VNAR, VNAR on phage; Clone 8 framework) VNAR: ARVDQTPQTITKETGESLTINCVLRDSNCALPSTYWYRKKSGSTNEESISKGGRYVETVNSGSKSFSLRINDLTVEDSGTYRCKVIAQLSSILRGCSGVKHDVYGDGTAVTVNA | 0.063 A450 | 0.06 A450

Row | Binder | A450 (recombinant human TfR-1) | A450 (recombinant mouse TfR-1)
17 | Clone 8.76 (VNAR, VNAR on phage; Clone 8 framework) VNAR: ARVDQTPQTITKETGESLTINCVLRDSNCALPSTYWYRKKSGSTNEESISKGGRYVETVNSGSKSFSLRINDLTVEDSGTYRCKVQEELSSILRGCNYRKHDVYGDGTAVTVNA | 0.05 A450 | 0.059 A450
18 | Clone 8.59 (VNAR, VNAR on phage; Clone 8 framework) VNAR: ARVDQTPQTITKETGESLTINCVLRDSNCALPSTYWYRKKSGSTNEESISKGGRYVETVNSGSKSFSLRINDLTVEDSGTYRCKVIAQLSSHDHGCNYRKHDVYGDGTAVTVNA | 0.073 A450 | 0.063 A450
19 | Clone 8.71 (VNAR, VNAR on phage; Clone 8 framework) VNAR: ARVDQTPQTITKETGESLTINCVLRDSNCALPSTYWYRKKSGSTNEESISKGGRYVETVNSGSKSFSLRINDLTVEDSGTYRCKVIAQLSSILRGCTPHKHDVYGDGTAVTVNA | 0.073 A450 | 0.061 A450
20 | Clone 8.68 (VNAR, VNAR on phage; Clone 8 framework) VNAR: ARVDQTPQTITKETGESLTINCVLRDSNCALPSTYWYRKKSGSTNEESISKGGRYVETVNSGSKSFSLRINDLTVEDSGTYRCKVIAQLSSILSSCHYRKHDVYGDGTAVTVNA | 0.056 A450 | 0.062 A450
21 | Clone 8.78 (VNAR, VNAR on phage; Clone 8 framework) VNAR: ARVDQTPQTITKETGESLTINCVLRDSNCALPSTYWYRKKSGSTNEESISKGGRYVETVNSGSKSFSLRINDLTVEDSGTYRCKVIAQLSSVVIGCNYSKHDVYGDGTAVTVNA | 0.049 A450 | 0.058 A450
22 | Clone 8.73 (VNAR, VNAR on phage; Clone 8 framework) VNAR: ARVDQTPQTITKETGESLTINCVLRDSNCALPSTYWYRKKSGSTNEESISKGGRYVETVNSGSKSFSLRINDLTVEDSGTYRCKVIAQLSSILKGCNYRKHDVYGDGTAVTVNA | 0.051 A450 | 0.059 A450
23 | Clone 8.58 (VNAR, VNAR on phage; Clone 8 framework) VNAR: ARVDQTPQTITKETGESLTINCVLRDSNCALPSTYWYRKKSGSTNEESISKGGRYVETVNSGSKSFSLRINDLTVEDSGTYRCKVIAQLSSAGMGCNYRKHDVYGDGTAVTVNA | 0.059 A450 | 0.063 A450
24 | Clone 8.86 (VNAR, VNAR on phage; Clone 8 framework) VNAR: ARVDQTPQTITKETGESLTINCVLRDSNCALPSTYWYRKKSGSTNEESISKGGRYVETVNSGSKSFSLRINDLTVEDSGTYRCKVIAQLSSILVNCFYRKHDVYGDGTAVTVNA | 0.053 A450 | 0.056 A450
25 | Clone 8.77 (VNAR, VNAR on phage; Clone 8 framework) VNAR: ARVDQTPQTITKETGESLTINCVLRDSNCALPSTYWYRKKSGSTNEESISKGGRYVETVNSGSKSFSLRINDLTVEDSGTYRCKVIAQLSSILRGCHLWKHDVYGDGTAVTVNA | 0.055 A450 | 0.058 A450
26 | Clone 8.88 (VNAR, VNAR on phage; Clone 8 framework) VNAR: ARVDQTPQTITKETGESLTINCVLRDSNCALPSTYWYRKKSGSTNEESISKGGRYVETVNSGSKSFSLRINDLTVEDSGTYRCKVIAQLSSILFGCAYRKHDVYGDGTAVTVNA | 0.05 A450 | 0.055 A450
27 | Clone 8.67 (VNAR, VNAR on phage; Clone 8 framework) VNAR: ARVDQTPQTITKETGESLTINCVLRDSNCALPSTYWYRKKSGSTNEESISKGGRYVETVNSGSKSFSLRINDLTVEDSGTYRCKVIAQLSSILRGCVEPKHDVYGDGTAVTVNA | 0.051 A450 | 0.062 A450
28 | Clone 8.75 (VNAR, VNAR on phage; Clone 8 framework) VNAR: ARVDQTPQTITKETGESLTINCVLRDSNCALPSTYWYRKKSGSTNEESISKGGRYVETVNSGSKSFSLRINDLTVEDSGTYRCKVIAQLTEMLRGCNYRKHDVYGDGTAVTVNA | 0.049 A450 | 0.059 A450
29 | Clone 8.74 (VNAR, VNAR on phage; Clone 8 framework) VNAR: ARVDQTPQTITKETGESLTINCVLRDSNCALPSTYWYRKKSGSTNEESISKGGRYVETVNSGSKSFSLRINDLTVEDSGTYRCKVIAQLSSLQDGCIYRKHDVYGDGTAVTVNA | 0.061 A450 | 0.059 A450
30 | Clone 8.84 (VNAR, VNAR on phage; Clone 8 framework) VNAR: ARVDQTPQTITKETGESLTINCVLRDSNCALPSTYWYRKKSGSTNEESISKGGRYVETVNSGSKSFSLRINDLTVEDSGTYRCKVIAWQSSILRGCNYRKHDVYGDGTAVTVNA | 0.058 A450 | 0.057 A450
31 | Clone 8.65 (VNAR, VNAR on phage; Clone 8 framework) VNAR: ARVDQTPQTITKETGESLTINCVLRDSNCALPSTYWYRKKSGSTNEESISKGGRYVETVNSGSKSFSLRINDLTVEDSGTYRCKVIAQLSSIHDGCNYRKHDVYGDGTAVTVNA | 0.081 A450 | 0.062 A450
32 | Clone 8.69 (VNAR, VNAR on phage; Clone 8 framework) VNAR: ARVDQTPQTITKETGESLTINCVLRDSNCALPSTYWYRKKSGSTNEESISKGGRYVETVNSGSKSFSLRINDLTVEDSGTYRCKVIAQLSSAPAGCNYRKHDVYGDGTAVTVNA | 0.065 A450 | 0.061 A450
